Laboratory results reported in IntAct's records for PubMed 21107322.

B1: G2/mitotic-specific cyclin cdc13 (Schizosaccharomyces pombe (strain ATCC 38366 / 972)), P10815 (parent)
chain: MTTRRLTRQHLLANTLGNNDENHPSNHIARAKSSLHSSENSLVNGKKATVSSTNVPKKRHALDDVSNFHNKEGVPLASKNTNVRHTTASVSTRRALEEKSIIPATDDEPASKKRRQPSVFNSSVPSLPQHLSTKSHSVSTHGVDAFHKDQATIPKKLKKDVDERVVSKDIPKLHRDSVESPESQDWDDLDAEDWADPLMVSEYVVDIFEYLNELEIETMPSPTYMDRQKELAWKMRGILTDWLIEVHSRFRLLPETLFLAVNIIDRFLSLRVCSLNKLQLVGIAALFIASKYEEVMCPSVQNFVYMADGGYDEEEILQAERYILRVLEFNLAYPNPMNFLRRISKADFYDIQTRTVAKYLVEIGLLDHKLLPYPPSQQCAAAMYLAREMLGRGPWNRNLVHYSGYEEYQLISVVKKMINYLQKPVQHEAFFKKYASKKFMKASLFVRDWIKKNSIPLGDDADEDYTFHKQKRIQHDMKDEEW
partner: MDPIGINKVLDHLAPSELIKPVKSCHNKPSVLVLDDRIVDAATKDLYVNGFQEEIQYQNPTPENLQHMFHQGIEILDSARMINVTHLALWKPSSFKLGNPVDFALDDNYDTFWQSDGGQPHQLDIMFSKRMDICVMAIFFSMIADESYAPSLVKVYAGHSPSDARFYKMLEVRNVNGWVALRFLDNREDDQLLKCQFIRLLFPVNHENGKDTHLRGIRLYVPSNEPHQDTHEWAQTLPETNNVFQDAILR

Variants of: B1
Conditions: with apc10_yeast DOC1, P53068

effect of a mutation on the interaction | Variant
decreasing interaction | MTTRRLTRQHLLANTLGNNDENHPSNHIARAKSSLHSSENSLVNGKKATVSSTNVPKKAHAADDASAFHNKEGVPLASKNTNVRHTTASVSTRRALEEKSIIPATDDEPASKKRRQPSVFNSSVPSLPQHLSTKSHSVSTHGVDAFHKDQATIPKKLKKDVDERVVSKDIPKLHRDSVESPESQDWDDLDAEDWADPLMVSEYVVDIFEYLNELEIETMPSPTYMDRQKELAWKMRGILTDWLIEVHSRFRLLPETLFLAVNIIDRFLSLRVCSLNKLQLVGIAALFIASKYEEVMCPSVQNFVYMADGGYDEEEILQAERYILRVLEFNLAYPNPMNFLRRISKADFYDIQTRTVAKYLVEIGLLDHKLLPYPPSQQCAAAMYLAREMLGRGPWNRNLVHYSGYEEYQLISVVKKMINYLQKPVQHEAFFKKYASKKFMKASLFVRDWIKKNSIPLGDDADEDYTFHKQKRIQHDMKDEEW [R59A;L62A;V65A;N67A]
